The chains are these.
T1: Abz-GGFLRKHGQ-EDDnp
T1 chain: GGFLRKHGQ

B1: IDE^K898A,K899A,S901A (protein)
chain: TMNNPAIQRIEDHIVKSPEDKREYRGLELANGIKVLLISDPTTDKSSAALDVHIGSLSDPPNIPGLSHFCEHMLFLGTKKYPKENEYSQFLSEHAGSSNAFTSGEHTNYYFDVSHEHLEGALDRFAQFFLCPLFDASCKDREVNAVDSEHEKNVMNDAWRLFQLEKATGNPKHPFSKFGTGNKYTLETRPNQEGIDVREELLKFHSTYYSSNLMAICVLGRESLDDLTNLVVKLFSEVENKNVPLPEFPEHPFQEEHLKQLYKIVPIKDIRNLYVTFPIPDLQQYYKSNPGHYLGHLIGHEGPGSLLSELKSKGWVNTLVGGQKEGARGFMFFIINVDLTEEGLLHVEDIILHMFQYIQKLRAEGPQEWVFQECKDLNAVAFRFKDKERPRGYTSKIAGKLHYYPLNGVLTAEYLLEEFRPDLIDMVLDKLRPENVRVAIVSKSFEGKTDRTEQWYGTQYKQEAIPEDVIQKWQNADLNGKFKLPTKNEFIPTNFEILALEKDATPYPALIKDTAMSKLWFKQDDKFFLPKACLNFEFFSPFAYVDPLHCNMAYLYLELLKDSLNEYAYAAELAGLSYDLQNTIYGMYLSVKGYNDKQPILLKKITEKMATFEIDKKRFEIIKEAYMRSLNNFRAEQPHQHAMYYLRLLMTEVAWTKDELKEALDDVTLPRLKAFIPQLLSRLHIEALLHGNITKQAALGVMQMVEDTLIEHAHTKPLLPSQLVRYREVQLPDRGWFVYQRRNEVHNNCGIEIYYQTDMQSTSENMFLELFCQIISEPCFNTLRTKEQLGYIVFSGPRRANGIQGLRFIIQSEKPPHYLESRVEAFLITMEKAIEDMTEEAFQKHIQALAIRRLDKPAALAAECAKYWGEIISQQYNYDRDNIEVAYLKTLSKDDIIKFYKEMLAVDAPRRHKVSVHVLAREMDSCPVVGEFPSQNDINLSEAPPLPQPEVIHNMTEFKRGLPLFPLVKPHINFMAAKL
B2: wild type rat IDE (rIDE), Example 2 (protein)
chain: MNNPAIQRIEDHIVKSPEDKREYRGLELANGIKVLLISDPTTDKSSAALDVHIGSLSDPPNIPGLSHFCEHMLFLGTKKYPKENEYSQFLSEHAGSSNAFTSGEHTNYYFDVSHEHLEGALDRFAQFFLCPLFDASCKDREVNAVDSEHEKNVMNDAWRLFQLEKATGNPKHPFSKFGTGNKYTLETRPNQEGIDVREELLKFHSTYYSSNLMAICVLGRESLDDLTNLVVKLFSEVENKNVPLPEFPEHPFQEEHLKQLYKIVPIKDIRNLYVTFPIPDLQQYYKSNPGHYLGHLIGHEGPGSLLSELKSKGWVNTLVGGQKEGARGFMFFIINVDLTEEGLLHVEDIILHMFQYIQKLRAEGPQEWVFQECKDLNAVAFRFKDKERPRGYTSKIAGKLHYYPLNGVLTAEYLLEEFRPDLIDMVLDKLRPENVRVAIVSKSFEGKTDRTEQWYGTQYKQEAIPEDVIQKWQNADLNGKFKLPTKNEFIPTNFEILALEKDATPYPALIKDTAMSKLWFKQDDKFFLPKACLNFEFFSPFAYVDPLHCNMAYLYLELLKDSLNEYAYAAELAGLSYDLQNTIYGMYLSVKGYNDKQPILLKKITEKMATFEIDKKRFEIIKEAYMRSLNNFRAEQPHQHAMYYLRLLMTEVAWTKDELKEALDDVTLPRLKAFIPQLLSRLHIEALLHGNITKQAALGVMQMVEDTLIEHAHTKPLLPSQLVRYREVQLPDRGWFVYQRRNEVHNNCGIEIYYQTDMQSTSENMFLELFCQIISEPCFNTLRTKEQLGYIVFSGPRRANGIQGLRFIIQSEKPPHYLESRVEAFLITMEKAIEDMTEEAFQKHIQALAIRRLDKPKKLSAECAKYWGEIISQQYNYDRDNIEVAYLKTLSKDDIIKFYKEMLAVDAPRRHKVSVHVLAREMDSCPVVGEFPSQNDINLSEAPPLPQPEVIHNMTEFKRGLPLFPLVKPHINFMAAKL
B3: rIDE-Y609F (protein)
chain: B2 chain with Y568F
B4: rIDE-V360S (protein)
chain: B2 chain with V319S
B5: rIDE-I374S (protein)
chain: B2 chain with I333S
B6: wild type rat IDE, Example 1 (protein)
chain: B1 chain with E71F, A858K, A859K, A861S
B7: IDE^R429S (protein)
chain: B1 chain with R389S, A858K, A859K, A861S
B8: rIDE-E111F (protein)
chain: B2 chain with E70F

A word on the Hill coefficient: it is the slope factor of the fitted curve. As usually defined, the Vmax is the top rate of the reaction or transport when substrate is in excess. A word on the kcat: it is the maximal rate divided by the concentration of active sites. One may read the Km as the concentration of substrate that gives half-maximal velocity.

Where a chain is given by its changes, count along the chain named. Numbers in names are those of the source.

bradykinin, P01042, sequence (P01042 whole entry, looked up): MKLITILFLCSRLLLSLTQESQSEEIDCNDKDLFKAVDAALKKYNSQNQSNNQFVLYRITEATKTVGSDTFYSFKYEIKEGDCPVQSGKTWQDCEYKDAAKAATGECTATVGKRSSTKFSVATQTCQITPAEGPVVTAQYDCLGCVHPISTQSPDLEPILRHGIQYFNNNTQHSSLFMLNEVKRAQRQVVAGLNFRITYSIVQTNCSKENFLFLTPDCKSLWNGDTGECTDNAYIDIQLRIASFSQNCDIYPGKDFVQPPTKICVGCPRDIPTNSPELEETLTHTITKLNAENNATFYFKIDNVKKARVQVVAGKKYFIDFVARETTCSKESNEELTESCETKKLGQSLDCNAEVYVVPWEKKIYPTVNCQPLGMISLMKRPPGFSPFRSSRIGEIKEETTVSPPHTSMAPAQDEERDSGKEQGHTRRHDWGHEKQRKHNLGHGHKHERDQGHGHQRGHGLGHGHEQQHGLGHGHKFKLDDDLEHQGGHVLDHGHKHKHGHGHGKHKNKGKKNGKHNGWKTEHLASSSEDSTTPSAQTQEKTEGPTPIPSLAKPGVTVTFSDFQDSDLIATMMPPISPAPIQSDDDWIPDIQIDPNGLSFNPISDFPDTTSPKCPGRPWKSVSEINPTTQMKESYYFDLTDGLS

One data set has as its target bradykinin, P01042.
Experiment: not given
Settings: not given
In the case of B1, the “effect of bradykinin on the rate of Abz-GGFLRKHGQ-EDDnp hydrolysis” value was “the observed rate for IDE^K898A,K899A,S901A was significantly reduced”.
Turning to B2, the “Heterotropic activation of Abz-GGFLRKHGQ-EDDnp hydrolysis” value is “approximately 4-fold for the wild type enzyme”.
On the same count and under the same terms, in the case of B3 it was “is also lost in all three mutants”.
On the same count and under the same terms, for B4 the value was “is also lost in all three mutants”; for B5, “is also lost in all three mutants”.

The target of a further data set is T1, Abz-GGFLRKHGQ-EDDnp.
Experiment: not given
Settings: not given
In the case of B6, the Hill coefficient amounted to 2.1, the maximum rate (Vmax) turned out to be 47.2 nmol/min/mg and the turnover number (kcat) came out at 0.0867 s⁻¹.
For B1, in that order: 1.7, 141 nmol/min/mg and 0.258 s⁻¹.
Turning to B7, the Hill coefficient turned out to be 1.7, the maximal velocity (Vmax) came out at 42.3 nmol/min/mg and the catalytic constant (kcat) worked out at 0.0783 s⁻¹.
For B2, the Hill coefficient amounted to 1.8, the Michaelis-Menten constant (Km) was determined as 15.9 µM, the Specific activity is reported as 8,131 nmol/min/mg for the wild type enzyme and the maximum rate (Vmax) was found to be 35.5 nmol/min/mg.
For the molecule B3, the Hill coefficient was determined as 1.04, the Km was found to be 6.86 µM and the Vmax came out at 2.6 nmol/min/mg.
For B4, in that order: 1.07, 8.61 µM and 2.01 nmol/min/mg.
In the case of B8, the Specific activity was 5.2 nmol/min/mg for the E111F mutant.
For B5, the Hill coefficient was 1.12, the Michaelis-Menten constant (Km) was determined as 8.5 µM and the maximum rate (Vmax) amounted to 3.45 nmol/min/mg.

A further data set concerns Abz-GGFLRKHGQ-EDDnp. The experiment in a line: Enzyme activity assay, kinetics of wild type rIDE and distal site mutants with fluorogenic substrate. The data set is classed as biochemical. As to conditions: Abz-GGFLRKHGQ-EDDnp substrate. Here is the method: FIG. 17. Effects of distal site mutations. (A) Comparison of the kinetics of wild type IDE with the distal site mutants. Activity was measured with varying amounts of Abz-[…]-EDDnp (SEQ ID NO:3) substrate as indicated. Either hyperbolic (Michaelis-Menten equation) or sigmoidal curves (Hill equation) were fit to the data. (B) Effect of bradykinin on the activity of wild type IDE and the distal site mutants. (C) Activation of wild type IDE and distal site mutants by ATP. Relative activity is the fold activation above the level of the wild type enzyme alone.
The activity of IDE was measured by following the increase in fluorescence upon hydrolysis at the L-R bond of the fluorogenic peptide Abz-[…]-EDDnp (SEQ ID NO:3) on a SpectraMax Gemini XS fluorescence plate reader using an excitation wavelength of 318 nm and emission wavelength of 419 nm. Reactions were carried out in 200 μl volumes containing 50 mM Tris-HCl, pH 7.4, 1.92 μg of wild type rIDE, 4.6 μg of rIDE-V360S, 4.3 μg rIDE-I374S, or 1.63 μg of rIDE-Y609F. For measurements of activation by bradykinin, IDE activity was determined with 10 μM Abz-[…]-EDDnp (SEQ ID NO:3) as substrate in 50 mM Tris-HCl buffer, pH 7.4. The amount of protein was 0.5 μg for wild type rIDE and 5 μg for each of the IDE distal-site mutants. Data were analyzed using Softmax 4.0 (Molecular Devices) and kinetic parameters calculated with Prism (Graphpad Software). […] Under these assay conditions, both wild type and mutant rIDE are almost completely dimeric.
B8 had a Specific activity of 5.2 nmol/min/mg.
